Measured values as given in patent US20230365956A1 (SYSTIMMUNE, published 2023).

Columns and labels:
[1] = target: T1, SARS-CoV-2 RBD, wild type (Sino Biological) (SARS-CoV-2, UniProt P0DTC2 319-541); test: BLI, affinity format: binder on AHC sensor, RBD in solution
T1 construct: domain: RBD

[2] = target: T2, SARS-CoV-2 RBD variant Alpha (N501Y) (Sino Biological) (SARS-CoV-2, UniProt P0DTC2 319-541); test: as above
T2 construct: domain: RBD

[3] = target: T3, SARS-CoV-2 RBD variant Delta (L452R, T478K) (Sino Biological) (SARS-CoV-2, UniProt P0DTC2 319-541); test: as above
T3 construct: domain: RBD

[4] = target: T4, SARS-CoV-2 RBD variant Kappa (L452R, E484Q) (Sino Biological) (SARS-CoV-2, UniProt P0DTC2 319-541); test: as above
T4 construct: domain: RBD

[5] = target: T5, SARS-CoV-2 RBD variant Gamma (K417T, E484K, N501Y) (Sino Biological) (SARS-CoV-2, UniProt P0DTC2 319-541); test: as above
T5 construct: domain: RBD

[6] = target: T6, SARS-CoV-2 RBD variant Beta (K417N, E484K, N501Y) (Sino Biological) (SARS-CoV-2, UniProt P0DTC2 319-541); test: as above
T6 construct: domain: RBD

[7] = target: T7, SARS-CoV-2 RBD variant Lambda (L452Q, F490S) (Sino Biological) (SARS-CoV-2, UniProt P0DTC2 319-541); test: as above
T7 construct: domain: RBD

[8] = target: T1, SARS-CoV-2 RBD, wild type (Sino …); test: BLI, avidity format: response at highest analyte concentration
[9] = target: T2, SARS-CoV-2 RBD variant Alpha (N501Y) …; test: as above
[10] = target: T3, SARS-CoV-2 RBD variant Delta (L452R, …); test: as above
[11] = target: T4, SARS-CoV-2 RBD variant Kappa (L452R, …); test: as above
[12] = target: T5, SARS-CoV-2 RBD variant Gamma (K417T, …); test: as above
[13] = target: T6, SARS-CoV-2 RBD variant Beta (K417N, …); test: as above
[14] = target: T7, SARS-CoV-2 RBD variant Lambda (L452Q, …); test: as above
[15] = target: T1, SARS-CoV-2 RBD, wild type (Sino …); test: BLI, affinity format: response at highest analyte concentration
[16] = target: T2, SARS-CoV-2 RBD variant Alpha (N501Y) …; test: as above
[17] = target: T3, SARS-CoV-2 RBD variant Delta (L452R, …); test: as above
[18] = target: T4, SARS-CoV-2 RBD variant Kappa (L452R, …); test: as above
[19] = target: T5, SARS-CoV-2 RBD variant Gamma (K417T, …); test: as above
[20] = target: T6, SARS-CoV-2 RBD variant Beta (K417N, …); test: as above
[21] = target: T7, SARS-CoV-2 RBD variant Lambda (L452Q, …); test: as above
[22] = target: T1, SARS-CoV-2 RBD, wild type (Sino …); test: BLI, avidity format: biotinylated RBD on SA sensor, binder in solution
[23] = target: T2, SARS-CoV-2 RBD variant Alpha (N501Y) …; test: as above
[24] = target: T3, SARS-CoV-2 RBD variant Delta (L452R, …); test: as above
[25] = target: T4, SARS-CoV-2 RBD variant Kappa (L452R, …); test: as above
[26] = target: T5, SARS-CoV-2 RBD variant Gamma (K417T, …); test: as above
[27] = target: T6, SARS-CoV-2 RBD variant Beta (K417N, …); test: as above
[28] = target: T7, SARS-CoV-2 RBD variant Lambda (L452Q, …); test: as above

B1: Tixagevimab (antibody, V domains shown)
VH: QMQLVQSGPEVKKPGTSVKVSCKASGFTFMSSAVQWVRQARGQRLEWIGWIVIGSGNTNYAQKFQERVTITRDMSTSTAYMELSSLRSEDTAVYYCAAPYCSSISCNDGFDIWGQGTMVTVSS
VL: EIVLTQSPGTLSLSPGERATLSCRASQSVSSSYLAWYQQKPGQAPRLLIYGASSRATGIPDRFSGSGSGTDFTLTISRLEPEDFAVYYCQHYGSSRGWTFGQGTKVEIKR
Question: Which Kd [1] does the source give for B1 here?
Answer: 3.63 nM

Question: What about the koff [1] of the same binder?
Answer: 0.00406 s⁻¹

Question: And the kon [1]?
Answer: 1.12e+06 M⁻¹ s⁻¹

Question: And the Kd [2]?
Answer: 3.17 nM

Question: What about the koff [2] of the same binder?
Answer: 0.0026 s⁻¹

Question: What about the kon [2] of the same binder?
Answer: 821000 M⁻¹ s⁻¹

Question: What about the Kd [3] of the same binder?
Answer: 3.83 nM

Question: And the koff [3]?
Answer: 0.0043 s⁻¹

Question: What about the kon [3] of the same binder?
Answer: 1.12e+06 M⁻¹ s⁻¹

Question: And the Kd [4]?
Answer: 5.21 nM

Question: And the koff [4]?
Answer: 0.00469 s⁻¹

Question: What about the kon [4] of the same binder?
Answer: 900000 M⁻¹ s⁻¹

Question: What about the Kd [5] of the same binder?
Answer: 5.83 nM

Question: And the koff [5]?
Answer: 0.00484 s⁻¹

Question: What about the kon [5] of the same binder?
Answer: 830000 M⁻¹ s⁻¹

Question: What about the Kd [6] of the same binder?
Answer: 3.24 nM

Question: What about the koff [6] of the same binder?
Answer: 0.00318 s⁻¹

Question: And the kon [6]?
Answer: 981000 M⁻¹ s⁻¹

Question: And the Kd [7]?
Answer: 4.31 nM

Question: What about the koff [7] of the same binder?
Answer: 0.00337 s⁻¹

Question: And the kon [7]?
Answer: 782000 M⁻¹ s⁻¹

Question: And the Response [8]?
Answer: 1.7 nm shift

Question: What about the Response [9] of the same binder?
Answer: 1.35 nm shift

Question: And the Response [10]?
Answer: 1.3 nm shift

Question: What about the Response [11] of the same binder?
Answer: 1.54 nm shift

Question: What about the Response [12] of the same binder?
Answer: 1.58 nm shift

Question: And the Response [13]?
Answer: 1.14 nm shift

Question: What about the Response [14] of the same binder?
Answer: 1.76 nm shift

Question: What about the Response [15] of the same binder?
Answer: 0.477 nm shift

Question: What about the Response [16] of the same binder?
Answer: 0.552 nm shift

Question: And the Response [17]?
Answer: 0.513 nm shift

Question: And the Response [18]?
Answer: 0.472 nm shift

Question: And the Response [19]?
Answer: 0.474 nm shift

Question: What about the Response [20] of the same binder?
Answer: 0.46 nm shift

Question: And the Response [21]?
Answer: 0.411 nm shift

Question: What about the Kd [22] of the same binder?
Answer: 0.0221 nM

Question: And the koff [22]?
Answer: 7.4e-06 s⁻¹

Question: And the kon [22]?
Answer: 335000 M⁻¹ s⁻¹

Question: What about the Kd [23] of the same binder?
Answer: < 0.001 nM

Question: What about the koff [23] of the same binder?
Answer: < 1e-07 s⁻¹

Question: And the kon [23]?
Answer: 447000 M⁻¹ s⁻¹

Question: And the Kd [24]?
Answer: 0.0303 nM

Question: And the koff [24]?
Answer: 1.28e-05 s⁻¹

Question: And the kon [24]?
Answer: 422000 M⁻¹ s⁻¹

Question: And the Kd [25]?
Answer: < 0.001 nM

Question: What about the koff [25] of the same binder?
Answer: < 1e-07 s⁻¹

Question: And the kon [25]?
Answer: 416000 M⁻¹ s⁻¹

Question: What about the Kd [26] of the same binder?
Answer: < 0.001 nM

Question: And the koff [26]?
Answer: < 1e-07 s⁻¹

Question: And the kon [26]?
Answer: 376000 M⁻¹ s⁻¹

Question: And the Kd [27]?
Answer: < 0.001 nM

Question: And the koff [27]?
Answer: < 1e-07 s⁻¹

Question: And the kon [27]?
Answer: 440000 M⁻¹ s⁻¹

Question: And the Kd [28]?
Answer: < 0.001 nM

Question: And the koff [28]?
Answer: < 1e-07 s⁻¹

Question: What about the kon [28] of the same binder?
Answer: 362000 M⁻¹ s⁻¹
